The numbers were not newly measured in publication PMC9713128, which cites them from elsewhere.

Some results are limits rather than exact numbers.

The data set addresses HBcAg (Hepatitis B virus) (UniProt P03149). Briefly: solution binding assay.
Chain of UniProt P03149 (P03149 whole entry): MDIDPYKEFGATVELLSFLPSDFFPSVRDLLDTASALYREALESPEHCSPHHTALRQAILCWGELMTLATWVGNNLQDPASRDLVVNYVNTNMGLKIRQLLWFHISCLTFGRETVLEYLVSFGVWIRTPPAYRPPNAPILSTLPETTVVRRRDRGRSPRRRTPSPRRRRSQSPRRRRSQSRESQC

In the case of cyclic peptide C-WPFWGPW-C, the Kd is less than 25 nM. With cyclic peptide C-WSFFSNI-C, the dissociation constant Kd was less than 25 nM.
